Data as given in publication PMC10317887, “Hypoglycaemia frequency and physiological response after double or triple doses of once-weekly insulin icodec vs once-daily insulin glargine U100 in type 2 diabetes: a randomised crossover trial” (Diabetologia, 2023).

Columns and labels:
[1] = tested on: individuals with type 2 diabetes; experiment: Cognitive function: four-choice reaction time (4CRT) test; conditions: for Change in 4CRT correctness at PG3.0 mmol/l, least-squares mean / Change in 4CRT response time at PG3.0 mmol/l, least-squares mean / Change in 4CRT correctness at PGnadir, least-squares mean / Change in 4CRT response time at PGnadir, least-squares mean: change from baseline, subgroup
Description: (§3) Hypoglycaemic response assessments were conducted at predefined PG levels during hypoglycaemia development and recovery (Fig. 1b). Hypoglycaemic symptoms score (HSS), hypoglycaemia awareness, counterregulatory hormones, vital signs and cognitive function tests were assessed at baseline (PG5.5 mmol/l), during hypoglycaemia development (PG3.9 mmol/l and PG3.0 mmol/l) and at PGnadir.
(§4) Cognitive function was assessed using the trail making B (TMB) test, the digit symbol substitution test (DSST) and the four-choice reaction time (4CRT) test. In the TMB test from the Halstead Reitan Neuropsychological Battery [16, 17], the participant connects 25 circles distributed on a chart in the correct sequence as quickly as possible. The circles contain a number (1–13) or a letter (A–L), and the correct sequence consists of alternating numbers and letters (i.e. 1–A–2–B–3 etc). The test result is the time needed to complete the task correctly. In the DSST, which is a subtest of the Wechsler Adult Intelligence Scale - Revised [18], nine digits are represented by nine different symbols. During 90 s, the participant is requested to write down the appropriate symbol for as many numbers as possible in a given array. The test result is the number of correct responses. […] In 100 cycles, the participant responds by pressing the corresponding position on a keypad. The test result has two components: percentage of correct answers and the mean response time.
(§5) Changes in HSS, vital signs and cognitive function tests from baseline (PG5.5 mmol/l) to PG3.0 mmol/l and to PGnadir were compared between insulin products at each of the two dose levels using the same approach as described for PGnadir, except that no logarithmic transformation was done and that the baseline value was included as a covariate. Least-squares means, treatment difference and 95% CI were derived.

glucagon = experiment: Counterregulatory hormone response: plasma glucagon (ELISA); format: in vivo, human; conditions: for Glucagon at PG3.0 mmol/l, estimated geometric mean / Glucagon at PGnadir, estimated geometric mean: plasma, subgroup
Description: (§1) Plasma concentrations of glucagon were measured by an enzyme-linked immunosorbent assay (Mercodia AB, Uppsala, Sweden). Plasma concentrations of adrenaline (epinephrine) and noradrenaline (norepinephrine) were measured by liquid chromatography-mass spectrometry (Thermo Fisher Scientific, Dreieich, Germany). Serum concentrations of cortisol and growth hormone were measured by electrochemiluminescent immunoassays (Roche Diagnostics, Mannheim, Germany).

[2] = tested on: individuals with type 2 diabetes; experiment: Cognitive function: digit symbol substitution test (DSST); conditions: for Change in DSST at PG3.0 mmol/l, least-squares mean / Change in DSST at PGnadir, least-squares mean: change from baseline, subgroup
Description: as §3, §4, §5

[3] = tested on: noradrenaline (norepinephrine); experiment: Counterregulatory hormone response: plasma noradrenaline (LC-MS); format: in vivo, human; conditions: for Noradrenaline at PG3.0 mmol/l, estimated geometric mean / Noradrenaline at PGnadir, estimated geometric mean: plasma, subgroup
Description: as §1

cortisol = experiment: Counterregulatory hormone response: serum cortisol (electrochemiluminescent immunoassay); format: in vivo, human; conditions: for Cortisol at PG3.0 mmol/l, estimated geometric mean / Cortisol at PGnadir, estimated geometric mean: serum, subgroup; for Cortisol at PGnadir, estimated geometric mean: n=19 icodec
Description: as §1

insulin receptor = conditions: ref [9], [10]; cited from earlier work
From the text: (§2) In addition, the low insulin receptor binding affinity of icodec contributes to its long half-life by reducing the clearance rate, as insulin is mainly cleared by internalisation following binding to and activation of the insulin receptor [9, 10]. In case of excess amounts of icodec throughout the body, e.g ...

albumin = conditions: ref [9], [10]; cited from earlier work
From the text: as §2

[4] = tested on: individuals with type 2 diabetes; experiment: Hypoglycaemic symptoms score (HSS, Edinburgh Hypoglycaemia Scale) during hypoglycaemia induction; conditions: for Change in HSS at PG3.0 mmol/l, least-squares mean: change from baseline PG5.5 mmol/l; for Change in HSS at PG3.0 mmol/l, least-squares mean / Change in HSS at PGnadir, least-squares mean: subgroup; for Change in HSS at PGnadir, least-squares mean: change from baseline
Description: as §3
The validated Edinburgh Hypoglycaemia Scale was used to determine hypoglycaemic symptoms, which were classified into 11 different autonomic, neuroglycopenic and non-specific symptoms of hypoglycaemia [14, 15]. The participant scored each of the 11 symptoms on a seven-point scale (1=‘not at all’, while 7=‘a great deal’). The total score was derived as 11 multiplied by the mean score for all symptoms.
as §5

[5] = tested on: individuals with type 2 diabetes; experiment: Hypoglycaemia awareness question 'Do you feel hypo?' during hypoglycaemia induction; format: in vivo, human; conditions: subgroup
Description: Hypoglycaemia awareness was determined by asking the question, ‘Do you feel hypo?’, to the participant.

growth hormone = experiment: Counterregulatory hormone response: serum growth hormone (electrochemiluminescent immunoassay); format: in vivo, human; conditions: for Growth hormone at PG3.0 mmol/l, estimated geometric mean / Growth hormone at PGnadir, estimated geometric mean: serum, subgroup; for Growth hormone at PGnadir, estimated geometric mean: n=19 icodec
Description: as §1

[6] = tested on: individuals with type 2 diabetes; experiment: Cognitive function: trail making B (TMB) test; conditions: for Change in TMB at PG3.0 mmol/l, least-squares mean / Change in TMB at PGnadir, least-squares mean: change from baseline, subgroup
Description: as §3, §4, §5

[7] = double dose, n=16 icodec, 15 glargine U100
[8] = double dose, n=18 icodec, 17 glargine U100
[9] = triple dose, n=19 icodec, 28 glargine U100
[10] = triple dose, n=20 icodec, 27 glargine U100
[11] = double dose, n=17 icodec, 15 glargine U100
[12] = triple dose, listed as Insulin icodec
[13] = triple dose, n=20 icodec, 28 glargine U100
[14] = triple dose, n=20 icodec, 29 glargine U100
[15] = double dose, n=18 icodec, 18 glargine U100
[16] = double dose, n=20 icodec, 19 glargine U100

insulin icodec
Change in 4CRT correctness at PG3.0 mmol/l, treatment difference (95% CI) icodec vs glargine U100 ([1]; double dose): 0.2 (-1.1, 1.4) | Change in 4CRT correctness at PGnadir, treatment difference (95% CI) icodec vs glargine U100 ([1]; double dose): -0.2 (-1.3, 0.9) | Change in 4CRT response time at PG3.0 mmol/l, treatment difference (95% CI) icodec vs glargine U100 ([1]; double dose): -79.7 (-170.4, 10.9) | Change in 4CRT response time at PGnadir, treatment difference (95% CI) icodec vs glargine U100 ([1]; double dose): -97.1 (-230.5, 36.3) | Change in 4CRT correctness at PG3.0 mmol/l, least-squares mean [1, 7]: 0.1 %-points | Change in 4CRT response time at PG3.0 mmol/l, least-squares mean [1, 7]: 19.7 ms | Change in 4CRT correctness at PGnadir, least-squares mean [1, 8]: -0.3 %-points | Change in 4CRT response time at PGnadir, least-squares mean [1, 8]: 40.4 ms | Change in 4CRT correctness at PG3.0 mmol/l, treatment difference (95% CI) icodec vs glargine U100 ([1]; triple dose): 0.1 (-0.7, 0.9) | Change in 4CRT correctness at PGnadir, treatment difference (95% CI) icodec vs glargine U100 ([1]; triple dose): 0.4 (-0.9, 1.7) | Change in 4CRT response time at PG3.0 mmol/l, treatment difference (95% CI) icodec vs glargine U100 ([1]; triple dose): 11.8 (-44.0, 67.6) | Change in 4CRT response time at PGnadir, treatment difference (95% CI) icodec vs glargine U100 ([1]; triple dose): -66.7 (-155.8, 22.4) | Change in 4CRT correctness at PGnadir, least-squares mean [1, 9]: -0.3 %-points | Change in 4CRT response time at PGnadir, least-squares mean [1, 9]: 21.3 ms | Change in 4CRT correctness at PG3.0 mmol/l, least-squares mean [1, 10]: -0.3 %-points | Change in 4CRT response time at PG3.0 mmol/l, least-squares mean [1, 10]: 55.4 ms | Glucagon at PG3.0 mmol/l, treatment ratio (95% CI) icodec vs glargine U100 (glucagon; double dose): 0.83 (0.59, 1.16) | Glucagon at PGnadir, treatment ratio (95% CI) icodec vs glargine U100 (glucagon; double dose): 0.92 (0.69, 1.23) | Glucagon at PG3.0 mmol/l, estimated geometric mean (glucagon; [11]): 39.6 ng/L | Glucagon at PGnadir, estimated geometric mean (glucagon; double dose, n=19 icodec, 19 glargine U100): 48.9 ng/L | Glucagon at PGnadir, treatment ratio (95% CI) icodec vs glargine U100 (glucagon; triple dose): 1.01 (0.74, 1.38) | Glucagon at PG3.0 mmol/l, treatment ratio (95% CI) icodec vs glargine U100 (glucagon; [12]): 1.07 (0.86, 1.33) | Glucagon at PG3.0 mmol/l, treatment ratio (95% CI) icodec vs glargine U100 (glucagon; triple dose, listed as icodec): 1.07 | Glucagon at PG3.0 mmol/l, estimated geometric mean (glucagon; [13]): 55.2 ng/L | Glucagon at PGnadir, estimated geometric mean (glucagon; [14]): 59.8 ng/L | Change in DSST at PG3.0 mmol/l, treatment difference (95% CI) icodec vs glargine U100 ([2]; double dose): 1.2 (-3.1, 5.5) | Change in DSST at PGnadir, treatment difference (95% CI) icodec vs glargine U100 ([2]; double dose): 0.6 (-3.7, 4.9) | Change in DSST at PG3.0 mmol/l, least-squares mean [2, 7]: -5.4 number of correct responses | Change in DSST at PGnadir, least-squares mean [2, 15]: -6.7 number of correct responses | Change in DSST at PG3.0 mmol/l, treatment difference (95% CI) icodec vs glargine U100 ([2]; triple dose): 0.5 (-3.3, 4.3) | Change in DSST at PGnadir, treatment difference (95% CI) icodec vs glargine U100 ([2]; triple dose): -2.2 (-6.8, 2.5) | Change in DSST at PGnadir, least-squares mean ([2]; triple dose, n=19 icodec, 29 glargine U100): -9.1 number of correct responses | Change in DSST at PG3.0 mmol/l, least-squares mean [2, 13]: -5.5 number of correct responses | Noradrenaline at PG3.0 mmol/l, treatment ratio (95% CI) icodec vs glargine U100 ([3]; double dose): 1.12 (0.83, 1.50) | Noradrenaline at PGnadir, treatment ratio (95% CI) icodec vs glargine U100 ([3]; double dose): 1.19 (0.91, 1.55) | Noradrenaline at PG3.0 mmol/l, estimated geometric mean [3, 11]: 952.7 pmol/L | Noradrenaline at PGnadir, estimated geometric mean [3, 16]: 1078.0 pmol/L | Noradrenaline at PG3.0 mmol/l, treatment ratio (95% CI) icodec vs glargine U100 ([3]; triple dose): 1.26 | Noradrenaline at PGnadir, treatment ratio (95% CI) icodec vs glargine U100 ([3]; triple dose): 1.05 (0.79, 1.40) | Noradrenaline at PG3.0 mmol/l, estimated geometric mean [3, 13]: 1058.4 pmol/L | Noradrenaline at PGnadir, estimated geometric mean [3, 14]: 934.1 pmol/L | Cortisol at PG3.0 mmol/l, treatment ratio (95% CI) icodec vs glargine U100 (cortisol; double dose): 1.60 (0.91, 2.80) | Cortisol at PGnadir, treatment ratio (95% CI) icodec vs glargine U100 (cortisol; double dose): 0.99 (0.67, 1.45) | Cortisol at PG3.0 mmol/l, estimated geometric mean (cortisol; [11]): 245.9 nmol/L | Cortisol at PGnadir, estimated geometric mean (cortisol; double dose, 19 glargine U100): 296.0 nmol/L | Cortisol at PG3.0 mmol/l, treatment ratio (95% CI) icodec vs glargine U100 (cortisol; triple dose): 1.64 | Cortisol at PGnadir, treatment ratio (95% CI) icodec vs glargine U100 (cortisol; triple dose): 1.80 | Cortisol at PGnadir, estimated geometric mean (cortisol; triple dose, 29 glargine U100): 355.0 nmol/L | Cortisol at PG3.0 mmol/l, estimated geometric mean (cortisol; [13]): 201.4 nmol/L | Insulin receptor binding affinity (insulin receptor): low | Binding to albumin (albumin): strong, reversible binding | Change in HSS at PG3.0 mmol/l, treatment difference (95% CI) icodec vs glargine U100 ([4]; double dose): 1.2 (-1.5, 4.0) | Change in HSS at PGnadir, treatment difference (95% CI) icodec vs glargine U100 ([4]; double dose): -0.3 (-4.0, 3.5) | Change in HSS at PG3.0 mmol/l, least-squares mean [4, 11]: 1.8 | Change in HSS at PGnadir, least-squares mean [4, 16]: 6.0 | Change in HSS at PGnadir, treatment difference (95% CI) icodec vs glargine U100 ([4]; triple dose): 0.5 (-2.7, 3.6) | Change in HSS at PG3.0 mmol/l, least-squares mean [4, 13]: 2.2 | Change in HSS at PGnadir, least-squares mean [4, 14]: 5.4 | Change in HSS at PG3.0 mmol/l, treatment difference (95% CI) icodec vs glargine U100 [4, 12]: -0.4 (-2.6, 1.8) | Change in HSS at PG3.0 mmol/l, treatment difference (95% CI) icodec vs glargine U100 ([4]; triple dose, listed as icodec): −0.4 | Proportion of individuals answering 'Yes' to 'Do you feel hypo?' ([5]; double dose, at PG3.0 mmol/l, n=9/17 icodec, 2/15 glargine U100): 52.9% | Proportion of individuals answering 'Yes' to 'Do you feel hypo?' ([5]; double dose, at PGnadir, n=14/20 icodec, 10/19 glargine U100): 70.0% | Proportion of individuals answering 'Yes' to 'Do you feel hypo?' ([5]; triple dose, at PG3.0 mmol/l, n=5/20 icodec, 8/28 glargine U100): 25.0% | Proportion of individuals answering 'Yes' to 'Do you feel hypo?' ([5]; triple dose, at PGnadir, n=9/20 icodec, 15/29 glargine U100): 45.0% | Growth hormone at PG3.0 mmol/l, treatment ratio (95% CI) icodec vs glargine U100 (growth hormone; double dose): 0.89 (0.46, 1.75) | Growth hormone at PGnadir, treatment ratio (95% CI) icodec vs glargine U100 (growth hormone; double dose): 1.35 (0.94, 1.94) | Growth hormone at PG3.0 mmol/l, estimated geometric mean (growth hormone; [11]): 3.6 µg/L | Growth hormone at PGnadir, estimated geometric mean (growth hormone; double dose, 19 glargine U100): 4.7 µg/L | Growth hormone at PG3.0 mmol/l, treatment ratio (95% CI) icodec vs glargine U100 (growth hormone; triple dose): 1.54 | Growth hormone at PGnadir, treatment ratio (95% CI) icodec vs glargine U100 (growth hormone; triple dose): 1.10 (0.50, 2.43) | Growth hormone at PGnadir, estimated geometric mean (growth hormone; triple dose, 29 glargine U100): 3.8 µg/L | Growth hormone at PG3.0 mmol/l, estimated geometric mean (growth hormone; [13]): 3.7 µg/L | Change in TMB at PG3.0 mmol/l, treatment difference (95% CI) icodec vs glargine U100 ([6]; double dose): 0.4 (-0.3, 1.0) | Change in TMB at PGnadir, treatment difference (95% CI) icodec vs glargine U100 ([6]; double dose): 0.3 (-0.2, 0.9) | Change in TMB at PG3.0 mmol/l, least-squares mean [6, 7]: 0.3 s | Change in TMB at PGnadir, least-squares mean [6, 15]: 0.3 s | Change in TMB at PG3.0 mmol/l, treatment difference (95% CI) icodec vs glargine U100 ([6]; triple dose): -0.1 (-0.4, 0.2) | Change in TMB at PGnadir, treatment difference (95% CI) icodec vs glargine U100 ([6]; triple dose): -0.1 (-0.3, 0.1) | Change in TMB at PGnadir, least-squares mean [6, 9]: -0.0 s | Change in TMB at PG3.0 mmol/l, least-squares mean ([6]; triple dose, n=20 icodec, 26 glargine U100): -0.0 s
